# Data: the nanobody polyreactivity screen of Harvey et al. (2022)
# Assay: yeast display, Sf9 membrane polyspecificity reagent, FACS + sequencing; frameworks hold sequencing errors
# Outline: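 Using colony PCR, genes from sorted yeast display clones were amplified, then sequenced on MiSeq at 2 × 250 and filtered by CDR length. The clones had been stained with 10% biotinylated, detergent-solubilized Sf9 membrane reagent for 1 hour at 4 °C and sorted by FACS into low and high (top ~1%) gates on anti-HA and streptavidin fluorescence. Polyreactivity labels come from the gate of origin.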
sequence,measurement,value
QVQLVESGGGLVQAGGSLRLSCAASGSTFSPNAMGWYRQAPGKERELVAAISGSGGSTYYADSVKGRFTISRDNAKNTVYLQMNSLKPEDTAVYYCAADSYYDGDYWGQGTQVTVSS,polyreactivity (PSR sort gate),low polyreactivity
QVQLQESGGGQVQAGGSLRLSCAASGYISTHYFMGWYRQAPGKDREFVAGISNGSITNYADSVKGRFTISRDNARNTVYLQMNSLKPEDTAVYYGAAFEWTYVRFGYWGQGTQVTVSG,polyreactivity (PSR sort gate),high polyreactivity
QVQLVESARGLVQAGGCLRLSCAASGSTFHQNAMGWSRQAPGKERELVAAITSGGSTYYADSVKGRFTISRDNAKNTGYLQMNSLKPEDTAVYYCNALTHVRSKRWRFRSEHDYWGQGTQVTVSS,polyreactivity (PSR sort gate),high polyreactivity
QVQLVESGGGLVQAGGSLRLSCAASGSIFSYYDMGWYRQAPGKERELVAGISRGGSTNYADSVKGRFTISRDNAKNTVYLQMNSLKPEDTAVYYCNADQSSRTYPFRRSRRSWLYGYWGQGTQVTVSS,polyreactivity (PSR sort gate),low polyreactivity
QVQLVESGGGLVQAGGSLSLTCAASGSIFRYYAMGWYRQAPGKERELVADITSSGGSTYYADSVKGRFTISRDNAKNTDYLQMNSLKPEDTAVYYCAALYWFYVYPFTEYDYWGQGTQVTVSS,polyreactivity (PSR sort gate),low polyreactivity
QVQVVESGGGLVQAGGSLRLSCAASGSIFHNNAMGWYRQAPGKERELVASITSRGGSTYYADSVKGRFTISRDNAKNTVYLQMNSLKPEDTAVYYCAARPYARVKTHGYWGQGTQVSVSS,polyreactivity (PSR sort gate),low polyreactivity
QVQLVVSGGGLVQAGGILRLICAASGIIFSFYTMGGYRQAPGKERELVAAISTGGGSTYYADSVKGRFTISRDNAKNTVYLQMNSLIPEDTAVSYCAASQSWYWGGAHDNGEFGYCGQGTQVTVSS,polyreactivity (PSR sort gate),low polyreactivity
QVQLVESGGGLVQAGGSLRLSCPASGSISYFNAMGGYRQAPGKERELVAAITSCGSTYYADSVKGRFTISRDNAKNSVYLQMNSLKPEDTAVYYCAADDSWFYYGYGYWGQGTQVTVSS,polyreactivity (PSR sort gate),low polyreactivity
QVQLVESGGGLVQAGGSLRLSCAASGFIFGFYAMGWYRQAPWKERELVAAITSDGGTYYADSVKGRFTISRDNAKNTVYLQMNSLKPEDTAVYYCAADVLYEVFSWYVGYDYWGQGTQVTVSS,polyreactivity (PSR sort gate),low polyreactivity
QVWLQESGGGLVQACGSLRLSCAASGTISRDIFMGWYRQAPGKEREFVATIAQGGITNYADSVKGRFTISRDNAKNTLYLQMNSVKPGDTAVYYCAARDGNCYWFYYWGQGTQVTVSS,polyreactivity (PSR sort gate),high polyreactivity
QVQLVESGGGLVQPGGSLRLSCAASGSTFIEYSMGWYRQAPGKERELVATIRGTGSTNYADSVKGRFTISRDNAKNTVYLQMNSLKPEDTAVYYCMKKPDPRWYYWGDYWGQGTQVTVSS,polyreactivity (PSR sort gate),low polyreactivity
QVQLVESGGGLVQAGGSLRLSCAASGFTFTLYAMGWYRQAPGKERELVAAISWNGSTYYADSVKGRFTISRDNAKNTVYLQMNSLKPEDTAVYYCNADVWISYNNAYVTLDYWGQGTQVTVSS,polyreactivity (PSR sort gate),high polyreactivity
QVQLVESGGGLVQAGGSLRLSCAASGRTFYAYAMGWYRQAPGKERELVAAITSGASTYYADSVKGRFTISRDNAKNTVYLQMISLKPEDTAVYYCAKRVRYYKPGYDYWGQGTQVTVSS,polyreactivity (PSR sort gate),low polyreactivity
QVQLVESGGGLVQAGGSLRLSCAASGFIFFRYAMGWYRQAPGKERELVATITSSGRTNYADSVKGRFTISRDNAKNTVYLQMNSLKPEDTAVYYCAAQRTGARRYRYDSWGQGTQVTVSS,polyreactivity (PSR sort gate),high polyreactivity
QVQLVESGGGLVQAGGSLRLSCAASGRTIKKYAMGWDRQAPGQEREFVAAITGSGGSTYYADSVKGRFTISRDNAKNTVYLQMNSLKPEDTAVYYCAAYAYGVWHSQDGGNYWGKGTQVTVSS,polyreactivity (PSR sort gate),low polyreactivity
QVQLVESGGGLVQAGGSLRLSCAPSGSIFKYNTMGWYRQEPGKERELVATISGGGRTYYADSVKGRFTISRDNAKNTDYLQMNSLKPVDTAVYYCAARKRGNFTYDYWGQGTQVTVSS,polyreactivity (PSR sort gate),high polyreactivity
QVQLVESGGGLFQAGGSLRLSCAASGRTLPAYAMGWYRQAPGKERELVAAISWGGGSTYYADSVKGRFTISRDNAKNTVYLQMNSLKPEDTSVYYCAVAGYWFAVAEYEYWGQGTQVTVSS,polyreactivity (PSR sort gate),low polyreactivity
QVQLEESGGGVVQAGGSLRLSCAASGSILGISAMGWYRPAPGKERALVAAIRTSSGSTYYADSVKVRFTISRDNAKNTVYFQMNSLKPEDTAVYSCAAYAFRYTPYYSWGQGTQVTVSS,polyreactivity (PSR sort gate),high polyreactivity
QVQLEESGGGLVQAGGSLRLSCAASGSIFGFYAMGWYRQAPGKERELVAAISQRGGNTYYADSVKGRFTISRDNAKNTVYLQMNSLKPEDTAVYYCATDKHPYKRHWYYTYDYWGQGTQLTVSS,polyreactivity (PSR sort gate),high polyreactivity
QLQHVESGGGLVQAGGSLRLSCAGTGRIMWRNAMGWYRQAPGKEMELVAAITSGSRTSYADSVKGRFTISRDNSKNTVYLQMNSLKPEDTAVYYCARRSYGIYYRSADESWGQGTQVTVSS,polyreactivity (PSR sort gate),high polyreactivity
QVQLVESGGGLVQAGGSLRLSCAASGSIFASNTMGWYRQAPGKERELVAGITKIGSSTYYADSVKGRFTISRDNAKNTVYLQMNSLKPEDTAVYYGNADYYFSWGSIEDYWGQGTQVSVSS,polyreactivity (PSR sort gate),low polyreactivity
QVQLVESGGGLVQAGGSLRLSCAASGITFKPNAMGWYRQAPGKERELVAALDTGGSTNYADSVKGRFTISRDNEKNTVYLQMNSLKPEDTEVYYCAAPYQDRDLHVSYSTYEGGYWGQGTQVTVSS,polyreactivity (PSR sort gate),low polyreactivity
QVQLVESGGGLVQAGGSLRLSCAASGLIFTSYAMGWYRQAPGKERELVAAISYSGGTTFYADSVKGRFTISRDNAKNTVYLQMNSLKPEDTAVYYCAADSLSTTHDTLGYDRDDYWGQGTQVTVSS,polyreactivity (PSR sort gate),low polyreactivity
QVQLVESGGGLVQAGGSLRLICAASGRIFDYYGMGWYRQAPGKETELVATIRRGGSTYYADSVKGRFTISRDNAMNTVYLQMNSLKPEDTAVYYCAAPGYSWYTYRRYDYWGQGTQVTVSS,polyreactivity (PSR sort gate),high polyreactivity
QVQLVESGGGLVQAGGSLRLSCAASGRTFYRYAMGWSRQAPGKERELVAGISGSGGRTYYADSVKGRFTISRDNAKNTVFLQMNSLKPEDTAVYYCNAYPHAYTGSTREGDYWGQGTQVTVSS,polyreactivity (PSR sort gate),high polyreactivity
QVQLVESGGGLVQAGGSLRLSCAASGSIFGYNVMGWYRQAPGKERELVAAITVNGGRTYYADSVKGRFTISRDNAKNTVYLQINSLKAEDTAVYYCAARVTGTQRSGYYWGQGTQVTVSS,polyreactivity (PSR sort gate),high polyreactivity
QVQLVESGGGLVQAGGSLRLSCAASGRIFLWYAMGWYRQAPGKERELVAANSSNGGSTRYADSVKGRFTISRDNAKNTVYLQMNSLKPEDTAVYYCNADVHWNRYPYGGNGYGYWGQGTQVTVSS,polyreactivity (PSR sort gate),low polyreactivity
QVQLVESGGCLVQAGGSLRLICAASVSIFYYYAMGWYRQAPGKERELVATIRSSDGSTYYADSVKGRFTISRDNAKNTVYLQMYSLKPEDTAVYYCAHGYFRYDYWGQGTQVSVSS,polyreactivity (PSR sort gate),low polyreactivity
QVQHVESGGGIVQAGGSLRLSCPASGSIYRKYAMGWSRQTPGKERELVAAIRSSGGSTYYADSVKGRFTISRDNAKNTVYLQMNSLKPEDTAVYYCASTYYRPSRYDYCGQGTQVTVSS,polyreactivity (PSR sort gate),high polyreactivity
QVQLVESGGGLVQAGGSLRLSCAASGRTFGIYTMGWYRQAPGKERELVASTYYADSVKGRFTISRDNAKNTVYLQMNSLKPEDTAVYYCNVERLKKSQEWYGYPNDYWGQGTQVTVSS,polyreactivity (PSR sort gate),low polyreactivity
QVQLQESGGGLVQAGGSLLSCAASGTISYYREMGWYRQAPGKERELVAGIGVGTITYYADSVKGRFTISRDNAKNTVYLHMNSLKPEDTAVYYCAAHIDGNDSHAYWGQGTQVTVSS,polyreactivity (PSR sort gate),low polyreactivity
QVQLVESGGGLVQAGGSLRLSCAASGSNYYYYAIGWYRQAPGKERELVAAISWSGASTFYADSVKGRFTSSRDNAKNTVYLQMNSLKPEDTAVYYCAARYYGQPQYQPLYYWGQGTQVTVSS,polyreactivity (PSR sort gate),high polyreactivity
QVQLVESGGGLVQAGGSLRLSCAASGSTFSYNAKGWYRQAPGKERELANYADSVKGRFTISRDKAKNTVYLQMNSLKPEDTAVYYCAAVGFSYYVIRFDYWGQGTQVTVSS,polyreactivity (PSR sort gate),low polyreactivity
QVQVLESGGGLVQAGGSLRLSCAASGRTFYWNAMGWYRQAPGKERELDAVISQSGGSTYYADSVKGRFTISRDNAKNTVYLQMNSLQPEDTAVYYCNKATRHHFYYWGQGTQVTVSS,polyreactivity (PSR sort gate),high polyreactivity
QVQLVESGGGLVQAGGSLRLSCAASGITSDFNAMGWYRQAPGKERELVAITWNGGSTYYADSVKGRFTISRDNAKNTVYLQMNSLKPEDSAVYYCAARYRRYNRIYDYWGQGTQVTVSS,polyreactivity (PSR sort gate),high polyreactivity
QVQLVESGGGLVQAGGSLRLSCAASGITIYEYAMGWYRQAPGKERELVAAITSGGTTNYADSVKGRFTISRDNAKNTVYLQMNSLKPEDTAVYYCAKDGGEGYDYWGQGTQVTVSS,polyreactivity (PSR sort gate),low polyreactivity
QVQLVESGGGLVQAGGSLRLSCAASGSTFRYYAMGWYRHAPGKDRELVAAISGSGGRTYYADSVKGRFTISRDNAKNTVYLQMNSLKPEDTAVYYCNTRGRRTDYDYWGQGTQVTVSS,polyreactivity (PSR sort gate),high polyreactivity
QVQLVESGGGLVQAGGSLRLSCAASGSTFVSYAMGWYRQAPGKERELVAGITRRGGTTYYADSVKGRFTISRDNAKNTVYLQMNSLKPEDTAVYYCARYSLYTGYRRYPLDYDYWGQGTQVTVSS,polyreactivity (PSR sort gate),high polyreactivity
QVQLVESGGGLVQAGGSLRLSCAASGLTFYLYVMGWYRQAPGKERELVAAISRRGGTTYYADSVKGRFTISRDNAKNTVYLQMNSLKPEDTAVYYCAADFFAGTQRTFDYWGQGTQVTVSS,polyreactivity (PSR sort gate),high polyreactivity
QVQLVESGGGLVQAGGSLRLSGSASGRTFSQYVMRWYRQAPGQERELVAAISKRGGRTYYADSVQGRFTISRDNAKNTVYLQMNSLNPEDTAVYYCNDVYRYYPFDYWGQGTQVTVSS,polyreactivity (PSR sort gate),high polyreactivity
QVQLVESGGGLVQAGGSLRLSCAASGFIFYRYAMGRYRQAPGKERELVAAISWGGGSTTYYADSVKGRFTISRDNAKNTVYLQMNSLKPEDTAVYYCAAYIGKGYGSEYYYWGQGTQVTVSS,polyreactivity (PSR sort gate),low polyreactivity
QVQLVESGGGLVQAGGSLRLSCAASGSILVRYAMGWYRQAPGKERELVAAITYSVGSTYYADSVKGRFTISRDNAKNTVYLQMNSLKPEDTAVYYCAASGGTEVLLMDYWGQGSQVTVSS,polyreactivity (PSR sort gate),low polyreactivity
QVQLVESGGGLVQAGGSLRLSCAASGFILKPNAMGWYRQAPGKERELVAAISWSSGSTYYADSVKGRFTISRDNAKNTVYLQMNRLKPEDTAVYYCAADYFVYPDDWYDYWGQGTQVTVSS,polyreactivity (PSR sort gate),low polyreactivity
